In patent publication US20260124245A1 (UNIVERSITY OF NORTH CAROLINA AT CHAPEL HILL, published 2026):
Ends that are not written are not given here.

Target: T1, Base Leucine Zipper (B-LZ)
T1 construct: In FRET it carried an AF555 label; In the cell and EV assays it was conjugated to the surface through Sulfo-SMCC; also called SynZip2
Assay: titration ELISA on coated B-LZ, anti-FLAG-HRP detection
Protocol: Enzyme-linked immunosorbent assay (ELISA). Nunc MaxiSorp 96-well plates were coated with Base-Leucine Zipper (B-LZ) at 2.5 μg/mL and incubated overnight at 4° C. The plate was thoroughly washed with 0.1% TBS-Tween (TBST). The wells were washed with 0.1% PBST and then blocked with BSA blocking buffer for 1 h at room temperature before incubation with complementary leucine zipper (C-LZ) concentrations ranging from 1 μM to […] at room temperature for 2 hours before washing. Washes were followed by the addition of 100 μL of anti-FLAG horseradish peroxidase (HRP)-linked monoclonal antibody (1:10,000 mAb, #A8592, Sigma Aldrich, St. Louis, MO) for 1 h at room temperature with rocking. The wells were washed with 0.1% PBST followed by the addition of TMB-ELISA substrate. After a 10 min incubation, 2 M H₂SO₄ was added to stop the reaction. The absorbance was measured at 450 nm and 570 nm with a SpectraMax M5 plate reader (Molecular Devices, Sunnyvale, CA).
The proteins were then expressed for in vitro testing. Using titration ELISA, the binding affinity of each sequence was tested for its affinity to the base leucine zipper (B-LZ). […] This decision was based on its high binding affinity and high expression levels in E. coli. […]

B1: NIS1 (high-affinity complementary leucine zipper, HiA C-LZ) (designed binder)
chain: NLVAQLENEVASLENENETLKNKNLQKKNLIAYLEQEIANLRKKIEG
modifications: also: purification and detection tags and conjugation cysteine, position not given here
notes: NIS1 is a mutant of C-LZ 10 nM; not shown: purification and detection tags and conjugation cysteine (Ni-NTA purified, anti-FLAG detected, thiol conjugated); letter
- fold improvement in B-LZ binding compared with C-LZ 10 nM: 5 fold
